Test results published in paper PMC10397247.
Read-outs that look alike come from different tables or passages of the source.

Legend:
Assay in all cases: two-hybrid library CCmax;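 further: natural log of median RNA to DNA barcode read ratio; higher means stronger binding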
4H967-AA = molecular target: T1, 4H967-AA
T1 chain: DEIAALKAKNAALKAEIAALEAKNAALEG

4H717-AA = molecular target: T2, 4H717-AA; conditions: mean of both orientations
T2 chain: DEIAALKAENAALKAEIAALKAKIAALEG

4H797-AA = molecular target: T3, 4H797-AA; conditions: mean of both orientations
T3 chain: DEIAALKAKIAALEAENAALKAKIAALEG

4H883-AA = molecular target: T4, 4H883-AA; conditions: mean of both orientations
T4 chain: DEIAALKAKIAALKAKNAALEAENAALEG

4H918-AA = molecular target: T5, 4H918-AA
T5 chain: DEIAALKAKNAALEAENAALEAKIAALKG

4H687-AA = molecular target: T6, 4H687-AA; conditions: mean of both orientations
T6 chain: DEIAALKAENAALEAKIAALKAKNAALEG

4H4001-AA = molecular target: T7, 4H4001-AA; conditions: mean of both orientations
T7 chain: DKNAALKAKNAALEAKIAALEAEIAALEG

4H3855-AA = molecular target: T8, 4H3855-AA
T8 chain: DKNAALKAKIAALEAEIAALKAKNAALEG

4H568-AA = molecular target: T9, 4H568-AA; conditions: mean of both orientations
T9 chain: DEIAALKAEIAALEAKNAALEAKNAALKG

4H953-AA = molecular target: T10, 4H953-AA; conditions: mean of both orientations
T10 chain: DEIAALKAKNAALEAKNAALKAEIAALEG

4H794-AA = molecular target: T11, 4H794-AA; conditions: mean of both orientations
T11 chain: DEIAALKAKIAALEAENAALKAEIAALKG

4H3655-AA = molecular target: T12, 4H3655-AA; conditions: mean of both orientations
T12 chain: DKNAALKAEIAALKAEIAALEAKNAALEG

4H48-AA = molecular target: T13, 4H48-AA; conditions: mean of both orientations
T13 chain: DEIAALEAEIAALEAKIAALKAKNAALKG

4H906-AA = molecular target: T14, 4H906-AA; conditions: mean of both orientations
T14 chain: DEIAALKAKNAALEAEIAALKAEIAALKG

4H678-AA = molecular target: T15, 4H678-AA; conditions: mean of both orientations
T15 chain: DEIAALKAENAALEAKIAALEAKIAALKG

4H3427-AA = molecular target: T16, 4H3427-AA
T16 chain: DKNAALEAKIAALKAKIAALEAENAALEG

4H881-AA = molecular target: T17, 4H881-AA; conditions: mean of both orientations
T17 chain: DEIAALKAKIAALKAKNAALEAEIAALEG

4H3627-AA = molecular target: T18, 4H3627-AA; conditions: mean of both orientations
T18 chain: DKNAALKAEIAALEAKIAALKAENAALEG

4H605-AA = molecular target: T19, 4H605-AA; conditions: mean of both orientations
T19 chain: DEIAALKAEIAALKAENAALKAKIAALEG

4H780-AA = molecular target: T20, 4H780-AA; conditions: mean of both orientations
T20 chain: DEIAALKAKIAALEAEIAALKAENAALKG

4H3844-AA = molecular target: T21, 4H3844-AA; conditions: mean of both orientations
T21 chain: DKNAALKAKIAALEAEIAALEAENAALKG

4H429-AA = molecular target: T22, 4H429-AA; conditions: mean of both orientations
T22 chain: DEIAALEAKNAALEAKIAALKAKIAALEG

4H993-AA = molecular target: T23, 4H993-AA; conditions: mean of both orientations
T23 chain: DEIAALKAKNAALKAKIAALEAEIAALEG

4H566-AA = molecular target: T24, 4H566-AA; conditions: mean of both orientations
T24 chain: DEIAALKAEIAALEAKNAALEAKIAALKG

4H454-AA = molecular target: T25, 4H454-AA; conditions: mean of both orientations
T25 chain: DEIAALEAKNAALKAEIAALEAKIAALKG

4H3782-AA = molecular target: T26, 4H3782-AA
T26 chain: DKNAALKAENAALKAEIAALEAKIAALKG

4H3606-AA = molecular target: T27, 4H3606-AA; conditions: mean of both orientations
T27 chain: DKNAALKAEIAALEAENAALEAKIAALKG

4H3921-AA = molecular target: T28, 4H3921-AA; conditions: mean of both orientations
T28 chain: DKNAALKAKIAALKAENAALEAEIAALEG

4H3939-AA = molecular target: T29, 4H3939-AA; conditions: mean of both orientations
T29 chain: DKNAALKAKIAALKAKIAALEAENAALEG

4H895-AA = molecular target: T30, 4H895-AA; conditions: mean of both orientations
T30 chain: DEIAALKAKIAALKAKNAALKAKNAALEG

4H446-AA = molecular target: T31, 4H446-AA; conditions: mean of both orientations
T31 chain: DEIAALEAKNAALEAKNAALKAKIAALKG

4H63-AA = molecular target: T32, 4H63-AA; conditions: mean of both orientations
T32 chain: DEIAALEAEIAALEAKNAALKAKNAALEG

4H58-AA = molecular target: T33, 4H58-AA; conditions: mean of both orientations
T33 chain: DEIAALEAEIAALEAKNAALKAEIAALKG

GCN2_T = molecular target: GCN2_T
4H380-AA = molecular target: T34, 4H380-AA; conditions: mean of both orientations
T34 chain: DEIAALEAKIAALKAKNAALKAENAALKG

4H465-AA = molecular target: T35, 4H465-AA; conditions: mean of both orientations
T35 chain: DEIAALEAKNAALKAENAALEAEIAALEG

4H_APH = molecular target: T36, 4H_APH; conditions: mean of both orientations
T36 chain: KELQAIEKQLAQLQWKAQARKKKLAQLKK

4H_BCR = molecular target: T37, 4H_BCR; conditions: mean of both orientations
T37 chain: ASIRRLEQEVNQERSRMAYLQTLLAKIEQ

4H_GCN4 = conditions: mean of both orientations
4H486-AA = molecular target: T38, 4H486-AA; conditions: mean of both orientations
T38 chain: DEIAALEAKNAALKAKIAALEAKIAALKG

4H535-AA = molecular target: T39, 4H535-AA; conditions: mean of both orientations
T39 chain: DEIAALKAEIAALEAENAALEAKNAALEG

4H3969-AA = molecular target: T40, 4H3969-AA; conditions: mean of both orientations
T40 chain: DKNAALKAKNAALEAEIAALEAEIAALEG

4H464-AA = molecular target: T41, 4H464-AA; conditions: mean of both orientations
T41 chain: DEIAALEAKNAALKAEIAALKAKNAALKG

4H483-AA = molecular target: T42, 4H483-AA; conditions: mean of both orientations
T42 chain: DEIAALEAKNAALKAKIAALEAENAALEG

4H_GCN4, sequence (chain, as listed by the source): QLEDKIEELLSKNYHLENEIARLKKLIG

DKNAALKAKIAALEAEIAALKAKNAALEG [4H3855-AA]
interaction score (4H967-AA): -1.53 | interaction score (4H717-AA): -1.18 | interaction score (4H797-AA): -1.29 | interaction score (4H883-AA): -1.77 | interaction score (4H918-AA; mean of both orientations): -2.01 | interaction score (4H687-AA): -1.5 | interaction score (4H4001-AA): -0.86 | interaction score (4H3855-AA): 1.05 | interaction score (4H568-AA): -1.35 | interaction score (4H953-AA): -1.89

DKNAALEAKIAALKAKIAALEAENAALEG [4H3427-AA]
interaction score (4H794-AA): -1.26 | interaction score (4H3655-AA): 0.589 | interaction score (4H967-AA; mean of both orientations): -1.59 | interaction score (4H717-AA): -1.29 | interaction score (4H48-AA): 1.18 | interaction score (4H906-AA): -1.69 | interaction score (4H678-AA): -1.47 | interaction score (4H3427-AA): -0.802 | interaction score (4H881-AA): -1.68 | interaction score (4H797-AA): -1.46 | interaction score (4H883-AA): -1.7 | interaction score (4H3627-AA): -0.773 | interaction score (4H918-AA): -1.2 | interaction score (4H687-AA): -1.62 | interaction score (4H605-AA): -1.66 | interaction score (4H4001-AA): -1.06 | interaction score (4H780-AA): -1.61 | interaction score (4H3844-AA): 0.482 | interaction score (4H429-AA): -1.37 | interaction score (4H993-AA): -1.24 | interaction score (4H3855-AA; mean of both orientations): -1.01 | interaction score (4H566-AA): -1.35 | interaction score (4H454-AA): -0.567 | interaction score (4H3782-AA; mean of both orientations): -0.991 | interaction score (4H568-AA): -0.257 | interaction score (4H3606-AA): -0.74 | interaction score (4H953-AA): -1.66 | interaction score (4H3921-AA): -1.79

DKNAALKAENAALKAEIAALEAKIAALKG [4H3782-AA]
interaction score (4H3939-AA): -0.413 | interaction score (4H895-AA): -1.54 | interaction score (4H967-AA; mean of both orientations): -1.19 | interaction score (4H717-AA): 1.02 | interaction score (4H446-AA): -1.07 | interaction score (4H63-AA): -1.44 | interaction score (4H58-AA): -1.38 | interaction score (GCN2_T): -1.87 | interaction score (4H380-AA): -1.52 | interaction score (4H797-AA): -1.45 | interaction score (4H465-AA): -1.7 | interaction score (4H883-AA): -1.27 | interaction score (4H918-AA; mean of both orientations): -0.968 | interaction score (4H687-AA): -0.545 | interaction score (4H_APH): -2.26 | interaction score (4H4001-AA): -0.482 | interaction score (4H_BCR): -1.19 | interaction score (4H_GCN4): -2.54 | interaction score (4H486-AA): 1.41 | interaction score (4H3855-AA; mean of both orientations): -0.587 | interaction score (4H535-AA): -1.44 | interaction score (4H3969-AA): -0.912 | interaction score (4H3782-AA): 0.893 | interaction score (4H568-AA): -1.41 | interaction score (4H464-AA): -0.448 | interaction score (4H953-AA): -1.68 | interaction score (4H483-AA): -0.902
